Laboratory results reported in patent US20260167959A1, “APTAZYME-BASED REGULATABLE GENE EXPRESSION SYSTEMS” (REJUVENATE BIO INC, priority 2022, published 2026).
Positions count from the first letter of the chain named.

Test system: Renilla luciferase RNA
Assay: Barcoded aptazyme variant library screen: un-cleaved Renilla luciferase RNA by barcode read counts, HEK293-T cells
Type: cell-based
Settings: un-cleaved Renilla luciferase RNA, HEK293-T cells cultured with 1 mM theophylline (ON) over without theophylline (OFF); barcode read counts, triplicate
Method in brief: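 Barcode sequencing of cDNA versus DNA, normalized per aptazyme, gave the un-cleaved Renilla luciferase RNA fraction and fold-change with versus without theophylline (triplicates). Library: T3H48 ribozyme with one of seven theophylline aptamer variants inserted at each position, placed in the Renilla 3′ UTR of a dual-luciferase vector.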

B1: RA066 (nucleic acid)
DNA: GCGCGTCCTGGATTCGCGGAAAGAATACCAGCATCGTCTTGATGCCCTTGGAAGTCTACGCGTACATCCAGCTGACGAGTCCCAAATAGGACGAAACGCGC
modifications: expressed or natural sequence
Fold change in RNA expression between the ON state and the OFF state: 1.9 fold

B2: RA049 (nucleic acid)
DNA: GCGCGTCCTGGATTCGCGGAAACGCGTACATAGAATACCAGCATCGTCTTGATGCCCTTGGAAGTCTCCAGCTGACGAGTCCCAAATAGGACGAAACGCGC
modifications: expressed or natural sequence
Fold change in RNA expression between the ON state and the OFF state: 2.0 fold

B3: RA052 (nucleic acid)
DNA: GCGCGTCCTGGATTCGCGGAAACGCGTACATCCAGCTGACGAGAGTGATACCAGCATCGTCTTGATGCCCTTGGCAGCACTTCCCAAATAGGACGAAACGCGC
modifications: expressed or natural sequence
Fold change in RNA expression between the ON state and the OFF state: 2.0 fold

B4: RA058 (nucleic acid)
DNA: GCGCGTCCTGGATTCGCGGAAACGCGTACATCCAGAGAATACCAGCATCGTCTTGATGCCCTTGGAAGTCTCGCTGACGAGTCCCAAATAGGACGAAACGCGC
modifications: expressed or natural sequence
Fold change in RNA expression between the ON state and the OFF state: 2.0 fold

B5: RA056 (nucleic acid)
DNA: GCGCGTCCTGGATTCGCGGAAACGCGTACATCCAGCTGACGAGTCCCGAGAATACCAGCATCGTCTTGATGCCCTTGGAAGTCTCAAATAGGACGAAACGCGC
modifications: expressed or natural sequence
Fold change in RNA expression between the ON state and the OFF state: 2.0 fold

B6: RA073 (nucleic acid)
DNA: GCGCGTCCTGGATTCGCGGAAACGCGTACACGGAATACCAGCATCGTCTTGATGCCCTTGGAAGTCCGTCCAGCTGACGAGTCCCAAATAGGACGAAACGCGC
modifications: expressed or natural sequence
Fold change in RNA expression between the ON state and the OFF state: 1.8 fold

B7: RA054 (nucleic acid)
DNA: GAGTGATACCAGCATCGTCTTGATGCCCTTGGCAGCACTCGCGTCCTGGATTCGCGGAAACGCGTACATCCAGCTGACGAGTCCCAAATAGGACGAAACGCGC
modifications: expressed or natural sequence
Fold change in RNA expression between the ON state and the OFF state: 2.0 fold

B8: RA050 (nucleic acid)
DNA: GCGCGTCCTGGATTCGCGGAAACGCGTACATCCAGCTGACGAGAATACCAGCATCGTCTTGATGCCCTTGGAAGTCTCGCGAGTCCCAAATAGGACGAAACGCGC
modifications: expressed or natural sequence
Fold change in RNA expression between the ON state and the OFF state: 2.0 fold

B9: RA061 (nucleic acid)
DNA: GCGCGTCCTGGATTCGCGGAAACGCGTACATCCAGCTGACGAGTCCCAAATAGGACGAAACGCGCGGAATACCAGCATCGTCTTGATGCCCTTGGAAGTCC
modifications: expressed or natural sequence
Fold change in RNA expression between the ON state and the OFF state: 1.9 fold

B10: RA068 (nucleic acid)
DNA: GCGCGTCCTGGATTCGCCCGGAATACCAGCATCGTCTTGATGCCCTTGGAAGTCCGGGGAAACGCGTACATCCAGCTGACGAGTCCCAAATAGGACGAAACGCGC
modifications: expressed or natural sequence
Fold change in RNA expression between the ON state and the OFF state: 1.8 fold

B11: RA051 (nucleic acid)
DNA: GCGCGTCCTGGATTCGCGGAAACGCGTACATCCAGCTGACGAGTCCCAAATAGGACGAAACCGAGAATACCAGCATCGTCTTGATGCCCTTGGAAGTCTCGGCGC
modifications: expressed or natural sequence
Fold change in RNA expression between the ON state and the OFF state: 2.0 fold

B12: RA072 (nucleic acid)
DNA: GCGCGTCCTGGATTCGCGGAAACGCGTACCGAGAATACCAGCATCGTCTTGATGCCCTTGGAAGTCTCGATCCAGCTGACGAGTCCCAAATAGGACGAAACGCGC
modifications: expressed or natural sequence
Fold change in RNA expression between the ON state and the OFF state: 1.8 fold

B13: RA064 (nucleic acid)
DNA: GCGCGTCCTGGATTCGCGGAAACGCGTACAGAATACCAGCATCGTCTTGATGCCCTTGGAAGTCTATCCAGCTGACGAGTCCCAAATAGGACGAAACGCGC
modifications: expressed or natural sequence
Fold change in RNA expression between the ON state and the OFF state: 1.9 fold

B14: RA060 (nucleic acid)
DNA: GCGCGTCCTGGATTCGCGGAAACGCGTACATCCAGCTGACGAGTCCCAAATAGGACGAAACGCGGGAATACCAGCATCGTCTTGATGCCCTTGGAAGTCCC
modifications: expressed or natural sequence
Fold change in RNA expression between the ON state and the OFF state: 1.9 fold

B15: RA006 (nucleic acid)
DNA: GCGCGTCCTGGATTCGCGGAAACGCGTACATCCAGCTGACGAGTCCCAAATAGGACGAAACGAGTGATACCAGCATCGTCTTGATGCCCTTGGCAGCACTCGC
modifications: expressed or natural sequence
Fold change in RNA expression between the ON state and the OFF state: 5.0 fold

B16: RA071 (nucleic acid)
DNA: B15 DNA with A63C, T65G, G66A, C94A, C97T, A98C, T100G
modifications: expressed or natural sequence
Fold change in RNA expression between the ON state and the OFF state: 1.8 fold

B17: RA070 (nucleic acid)
DNA: GCGCGTCCTGGATTCGCGGAAACGCGTACATCCAGCTGAGTGATACCAGCATCGTCTTGATGCCCTTGGCAGCACTACGAGTCCCAAATAGGACGAAACGCGC
modifications: expressed or natural sequence
Fold change in RNA expression between the ON state and the OFF state: 1.8 fold

B18: RA053 (nucleic acid)
DNA: GCGCGTCCTGGATTCGCGGAAACGCGTACATCCAGAGTGATACCAGCATCGTCTTGATGCCCTTGGCAGCACTCTGACGAGTCCCAAATAGGACGAAACGCGC
modifications: expressed or natural sequence
Fold change in RNA expression between the ON state and the OFF state: 2.0 fold

B19: RA069 (nucleic acid)
DNA: GCGCGTCCTGGATTCGCGGAAACGCGTACATCCAGCTGACGAGTCCCGGAATACCAGCATCGTCTTGATGCCCTTGGAAGTCCAAATAGGACGAAACGCGC
modifications: expressed or natural sequence
Fold change in RNA expression between the ON state and the OFF state: 1.8 fold

B20: RA005 (nucleic acid)
DNA: GCGCGTCCTGGATTCGCGGAAACCGGAATACCAGCATCGTCTTGATGCCCTTGGAAGTCCGGCGCGTACATCCAGCTGACGAGTCCCAAATAGGACGAAACGCGC
modifications: expressed or natural sequence
Fold change in RNA expression between the ON state and the OFF state: 5.2 fold

B21: RA057 (nucleic acid)
DNA: GCGCGTCCTGGATTCGCGGAAACGCGTACATCCAGCTGACGAGTCCCAAATAGGACAGAATACCAGCATCGTCTTGATGCCCTTGGAAGTCTGAAACGCGC
modifications: expressed or natural sequence
Fold change in RNA expression between the ON state and the OFF state: 2.0 fold

B22: RA063 (nucleic acid)
DNA: GCGCGTCCTGGATTCAGTGATACCAGCATCGTCTTGATGCCCTTGGCAGCACTGCGGAAACGCGTACATCCAGCTGACGAGTCCCAAATAGGACGAAACGCGC
modifications: expressed or natural sequence
Fold change in RNA expression between the ON state and the OFF state: 1.9 fold

B23: RA059 (nucleic acid)
DNA: GCGCGTCCTGGATTCCCGGAATACCAGCATCGTCTTGATGCCCTTGGAAGTCCGGGCGGAAACGCGTACATCCAGCTGACGAGTCCCAAATAGGACGAAACGCGC
modifications: expressed or natural sequence
Fold change in RNA expression between the ON state and the OFF state: 1.9 fold

B24: RA065 (nucleic acid)
DNA: GCTGTCACCGGAATACCAGCATCGTCTTGATGCCCTTGGAAGTCCGGTCTGATGAGTCCCAGAAGGACGAAACAGC
modifications: expressed or natural sequence
Fold change in RNA expression between the ON state and the OFF state: 1.9 fold

B25: RA055 (nucleic acid)
DNA: GCGCGTCCTGGATTCGCGGCGAGAATACCAGCATCGTCTTGATGCCCTTGGAAGTCTCGAAACGCGTACATCCAGCTGACGAGTCCCAAATAGGACGAAACGCGC
modifications: expressed or natural sequence
Fold change in RNA expression between the ON state and the OFF state: 2.0 fold

B26: RA074 (nucleic acid)
DNA: GCGCGTCCTGGATTCGCGGAAACGCGTACATCCAGCTGACGAGTCAGAATACCAGCATCGTCTTGATGCCCTTGGAAGTCTCCAAATAGGACGAAACGCGC
modifications: expressed or natural sequence
Fold change in RNA expression between the ON state and the OFF state: 1.8 fold

B27: RA067 (nucleic acid)
DNA: GCGCGTCCTGGATTCGCGGAAACGCGTACATCCAGTGATACCAGCATCGTCTTGATGCCCTTGGCAGCACTAGCTGACGAGTCCCAAATAGGACGAAACGCGC
modifications: expressed or natural sequence
Fold change in RNA expression between the ON state and the OFF state: 1.8 fold

B28: RA062 (nucleic acid)
DNA: GCGCGTCCTGGATTCGCGGAAACGCCCGGAATACCAGCATCGTCTTGATGCCCTTGGAAGTCCGGGTACATCCAGCTGACGAGTCCCAAATAGGACGAAACGCGC
modifications: expressed or natural sequence
Fold change in RNA expression between the ON state and the OFF state: 1.9 fold
